The target in series [1] is Pseudomonas aeruginosa pyruvate carboxylase (PaPC) α subunit (Pseudomonas aeruginosa). The experiment in a line: AUC; sedimentation velocity, 0.5 mg/ml, 20 °C, 42,000 r.p.m., 20 mM Tris pH 8.0, 150 mM NaCl, continuous c(s) distribution (SEDFIT).
Series [2] concerns the target Methylobacillus flagellatus pyruvate carboxylase (MfPC) α subunit, N-terminal hexa-histidine tag, co-expressed with the β subunit (Methylobacillus flagellatus). The experiment in a line: SEC; gel filtration of two-subunit PCs purified from E. coli co-expression, with Coomassie-stained SDS-PAGE of the purified complexes and of known amounts of α and β subunits; also with an extra plasmid expressing only α.

Series [3] shares this target. The experiment in a line: crystal structure; 'wild-type' MfPC (K419A, E421A, E422A in β), 6.6 Å, space group P3(1)21, one α and two β in the asymmetric unit, α2β4 by a crystallographic two-fold axis; 2.5 mM ATP and 2.5 mM pyruvate, 1.3 M ammonium sulfate, 0.1 M sodium citrate pH 6.0.
For series [4], the target named is MfPC β subunit with the surface entropy reduction mutations K419A, E421A and E422A, untagged (Methylobacillus flagellatus). The description is as above.
Series [5] shares this target. The experiment in a line: crystal structure; mutant MfPC (B domain deletion in α; K419A, E421A, E422A in β), 3.0 Å, space group R32, one α2β4 oligomer in the asymmetric unit; sitting drop, 20 °C, 2.5 mM pyruvate, 19% PEG3350, 2% tacsimate pH 6.0, 3% ethanol.
Series [6] addresses MfPC α subunit with the B sub-domain of BC (residues 131–201) replaced by a Gly–Ser–Ser–Gly linker (Methylobacillus flagellatus). The series is described as above.
Series [7] deals with MfPC α subunit expressed and purified alone (pET28a, N-terminal hexa-histidine tag) (Methylobacillus flagellatus). The experiment in a line: SEC; analytical gel filtration of separately purified MfPC α and β subunits, alone and mixed in 1:2, 1:1 or 2:1 molar ratios; peak fractions on SDS-PAGE. In general terms: SEC sorts molecules by how far they enter the pores of the column.

The target in series [8] is MfPC β subunit K581A mutant, purified alone (Methylobacillus flagellatus).
Series [9] deals with T1, SaPC (single-chain pyruvate carboxylase) (Staphylococcus aureus, UniProt A0A0H3JRU9).
T1 construct: gene pycA; single-chain homo-tetramer, ~570 kDa by AUC; expression not described here
T1 sequence (A0A0H3JRU9 1-1150): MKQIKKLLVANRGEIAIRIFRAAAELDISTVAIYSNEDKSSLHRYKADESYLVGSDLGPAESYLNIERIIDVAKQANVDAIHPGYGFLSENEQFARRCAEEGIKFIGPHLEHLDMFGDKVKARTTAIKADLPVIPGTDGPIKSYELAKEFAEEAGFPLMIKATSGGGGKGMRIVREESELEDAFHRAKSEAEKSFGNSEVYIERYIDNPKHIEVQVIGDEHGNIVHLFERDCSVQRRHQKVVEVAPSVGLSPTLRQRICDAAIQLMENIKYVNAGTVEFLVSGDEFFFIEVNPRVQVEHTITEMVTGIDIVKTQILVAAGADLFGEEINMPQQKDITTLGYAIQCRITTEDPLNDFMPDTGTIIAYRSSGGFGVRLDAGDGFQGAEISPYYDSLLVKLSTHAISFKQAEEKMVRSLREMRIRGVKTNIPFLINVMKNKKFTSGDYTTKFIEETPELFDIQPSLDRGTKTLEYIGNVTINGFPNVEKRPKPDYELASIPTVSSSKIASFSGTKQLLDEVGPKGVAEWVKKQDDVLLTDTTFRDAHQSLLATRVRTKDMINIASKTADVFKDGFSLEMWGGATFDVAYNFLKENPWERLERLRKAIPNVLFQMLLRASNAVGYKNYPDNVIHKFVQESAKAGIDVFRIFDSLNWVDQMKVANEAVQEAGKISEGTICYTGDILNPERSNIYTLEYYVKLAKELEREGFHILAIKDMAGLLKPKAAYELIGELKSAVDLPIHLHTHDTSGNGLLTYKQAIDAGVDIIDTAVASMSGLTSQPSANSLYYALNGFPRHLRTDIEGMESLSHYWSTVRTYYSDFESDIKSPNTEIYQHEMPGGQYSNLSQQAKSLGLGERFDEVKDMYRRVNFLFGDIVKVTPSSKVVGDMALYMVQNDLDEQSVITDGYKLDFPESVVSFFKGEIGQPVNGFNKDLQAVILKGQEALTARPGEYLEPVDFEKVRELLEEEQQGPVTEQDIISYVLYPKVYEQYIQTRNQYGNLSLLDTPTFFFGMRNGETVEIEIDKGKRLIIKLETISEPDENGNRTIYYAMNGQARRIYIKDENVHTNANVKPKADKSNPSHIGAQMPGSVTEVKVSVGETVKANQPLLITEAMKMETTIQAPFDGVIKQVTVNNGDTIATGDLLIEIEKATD
As to the kind of experiment: malate dehydrogenase-coupled PC activity with and without acetyl-CoA. It is filed as biochemical. The settings on record: allosteric activator.

Series [10] concerns the molecule itself. The experiment in a line: AUC; sedimentation velocity, 0.5 mg/ml, 20 °C, 42,000 r.p.m., 20 mM Tris pH 8.0, 150 mM NaCl, continuous c(s) distribution (SEDFIT).

With “Pseudomonas aeruginosa pyruvate carboxylase (PaPC) β subunit (enzyme)”, the stoichiometry N in [1] was 2 β per α.

On to “Methylobacillus flagellatus pyruvate carboxylase (MfPC) β subunit, untagged, co-expressed with the α subunit (enzyme)”, for which the stoichiometry N in series [2] was 2 β per α.

Consider “MfPC β subunit with the surface entropy reduction mutations K419A, E421A and E422A, untagged (enzyme)”, for which the stoichiometry N in series [3] was 2 β per α; in series [4], 2; in [5], 2; in series [6], 2 β per α.

For “MfPC β subunit expressed and purified alone (pET28a, N-terminal hexa-histidine tag) (enzyme)”, in series [7], the stoichiometry N is 2 β per α.

Consider “MfPC β subunit A49T mutant, purified alone (enzyme)”, for which, in series [8], the pyruvate carboxylase activity of hybrid holoenzymes (A49T and K581A β subunits mixed in a 1:1 ratio, then α subunit added), against the wild-type holoenzyme (% of wild-type activity) amounted to 29.

As for `CC(=O)SCCNC(=O)CCNC(=O)[C@H](O)C(C)(C)COP(=O)(O)OP(=O)(O)OC[C@H]1O[C@@H](n2cnc3c(N)ncnc32)[C@H](O)[C@@H]1OP(=O)(O)O` [acetyl-CoA], in series [9], the activation entry is given as “When acetyl-CoA is present, SaPC activity becomes comparable to those of the two-subunit PCs”.

B1: Staphylococcus aureus pyruvate carboxylase (SaPC), single-chain (enzyme, UniProt A0A0H3JRU9 1-1150, looked up)
chain: T1 sequence (A0A0H3JRU9 1-1150)
notes: single-chain pyruvate carboxylase, Staphylococcus aureus; Used as a control in the ultracentrifugation
On to B1, for which the “stoichiometry N” value in series [10] was 4.

The term stoichiometry N denotes the number of molecules, sites or subunits per partner or assembly.

The values are drawn from PMC5059739, “A distinct holoenzyme organization for two-subunit pyruvate carboxylase” (Nature Communications, 2016).
